Experimental data from publication PMC4967961.

Molecular target: HuR full-length (FL-HuR, rHuR) (UniProt Q15717 1-326)
Assay: EMSA; EMSA: 20 mM Tris-HCl pH 7.8, 150 mM KCl, 2 mM MgCl2, 0.1% Triton X-100, 0.5 mM DTT, heparin 5 mg/ml, BSA 1 mg/ml, 10% glycerol, on ice 15 min; 6% native PAGE, 0

Sequence of HuR full-length (FL-HuR, rHuR) (Q15717 whole entry): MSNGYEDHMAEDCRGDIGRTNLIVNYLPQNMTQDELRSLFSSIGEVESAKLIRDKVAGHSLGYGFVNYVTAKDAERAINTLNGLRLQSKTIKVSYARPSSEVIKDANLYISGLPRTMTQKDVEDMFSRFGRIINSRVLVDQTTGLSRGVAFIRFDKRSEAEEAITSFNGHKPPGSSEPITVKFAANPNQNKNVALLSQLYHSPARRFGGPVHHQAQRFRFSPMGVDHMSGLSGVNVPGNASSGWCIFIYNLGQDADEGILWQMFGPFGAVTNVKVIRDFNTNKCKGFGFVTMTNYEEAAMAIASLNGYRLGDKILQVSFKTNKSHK

Binder | binding result | Kd
AUUAUUUAUUAUUUAUUUAUUAUUUAUUUAUUUA (ssRNA) [TNF-alpha 3'UTR ARE RNA] | binds | 
UGGAGUGUGACAAUGGUGUUUG (ssRNA) [miR-122 (5p)] |  | 50 nM
